Experiments:
sortilin = target: T1, sortilin (Homo sapiens, UniProt Q99523); experiment: GSTpro internalization: acid wash (PBS, pH 2.0) before fixation; assay type: cell-based; conditions: PBS pH 2.0 immediately before fixation
T1 construct: They were transfected with plasmids either encoding wild type sortilin, or sortilin with a mutation that renders it endocytosis deficient; expressed in transfected cells; host or cells: HEK 293 cells, transient transfection (lipofectamine)
T1 sequence (Q99523 78-831): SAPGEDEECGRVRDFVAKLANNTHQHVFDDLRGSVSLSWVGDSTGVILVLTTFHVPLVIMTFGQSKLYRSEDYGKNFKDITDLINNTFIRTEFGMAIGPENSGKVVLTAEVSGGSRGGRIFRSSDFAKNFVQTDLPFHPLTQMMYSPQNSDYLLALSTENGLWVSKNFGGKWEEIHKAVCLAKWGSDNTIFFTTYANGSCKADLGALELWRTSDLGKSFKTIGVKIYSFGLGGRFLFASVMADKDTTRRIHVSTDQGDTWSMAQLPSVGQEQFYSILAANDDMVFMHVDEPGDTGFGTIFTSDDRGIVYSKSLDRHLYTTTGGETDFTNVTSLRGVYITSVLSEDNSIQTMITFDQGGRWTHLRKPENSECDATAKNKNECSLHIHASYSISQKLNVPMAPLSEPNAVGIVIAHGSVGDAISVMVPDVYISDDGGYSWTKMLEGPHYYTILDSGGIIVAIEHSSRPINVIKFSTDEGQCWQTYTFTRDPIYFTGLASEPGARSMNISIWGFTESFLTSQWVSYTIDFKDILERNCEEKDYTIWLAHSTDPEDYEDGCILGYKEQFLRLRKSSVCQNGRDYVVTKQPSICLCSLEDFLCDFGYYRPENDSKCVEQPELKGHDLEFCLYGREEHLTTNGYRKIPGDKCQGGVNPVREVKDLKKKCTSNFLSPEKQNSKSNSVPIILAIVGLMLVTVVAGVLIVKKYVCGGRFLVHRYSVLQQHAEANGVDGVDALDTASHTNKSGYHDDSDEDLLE
Text: To further examine whether GSTpro was internalized, rather than only binding to the cell exterior, extracellularly bound ligand was removed by washing cells in PBS acidified to pH 2.0 with HCl supplemented with 0.03 M sucrose and 10% FCS immediately before fixation.
It was not clear whether the detected ligand signal was only due to GSTpro binding to sortilin, or whether sortilin would be subsequently internalized. To determine if GSTpro was endocytosed after sortilin binding, we performed immunocytochemical staining with and without detergent (Fig. 6a, b, respectively). […] However, alternative interpretations are also possible (see discussion). […] We investigated if GSTpro was bound to the cell surface by using an acid wash to remove surface bound GSTpro. Cells were washed in PBS, pH 2.0 immediately before fixation, to remove extracellular ligand bound to receptors.

[1] = Precipitation and sticking to culture dishes; reagent stability; assay type: physicochemical; conditions: GSTpro versus proNGF
Text: This behavior led to more diffuse staining compared to GSTpro. […] Given the complications driven by the biophysical properties of proNGF, we pursued GSTpro as a source of the pro binding domain.
Due to reasons of stability of the proNGF protein and the specificity of binding, we recommend use of GSTpro in the assay, rather than recombinant proNGF. […] Although not formally tested by us, there may have been inconsistencies in the batches of proNGF protein used in the studies. As extracellular fluorescence could increase false positive cells by automated detection, proNGF was less reliable as a reagent in our assay (not shown). Both GSTpro and proNGF compete for binding to the sortilin receptor, it is likely that their binding sites are similar or at least overlap. Detection with GSTpro was more specific than with proNGF. […] The assay has the potential to use a tenfold lower concentration of GSTpro (5 nM, cf. Fig. 6v).

reduction of GSTpro signal by acid wash (sortilin; data not shown): 20%
B1: GSTpro: fusion of Glutathione S-transferase (GST) merged at the C-terminal of GST to the pro part (19–121) of human proNGF (protein)
chain: EPHSESNVPAGHTIPQAHWTKLQHSLDTALRRARSAPAAAIAARVAGQTRNITVDPRLFKKRRLRSPRVLFSTQPPREAADTQDLDFEVGGAAPFNRTHRSKR
modifications: left off: GST, N-terminal, kept
notes: fusion of Glutathione S-transferase (GST) merged at the C-terminal of GST to the pro part (19–121) of human proNGF
fraction of GSTpro signal removed by acid wash (in words) (sortilin): only removes a small fraction of the GSTpro signal | stability compared to proNGF (in words) [1]: more stable than proNGF

— article PMC5882628, “Development of a Cell-Based Assay to Assess Binding of the proNGF Prodomain to Sortilin” (Cellular and Molecular Neurobiology, 2017)
